The values below come from patent US20250236667A1, “ANTIBODIES TO MUTANT CALRETICULIN AND USES THEREOF” (CENTRAL ADELAIDE LOCAL HEALTH NETWORK INC, priority 2021, published 2025).

B1: wild type calreticulin (CALR) (other, human, UniProt P27797 18-417, looked up)
chain: EPAVYFKEQFLDGDGWTSRWIESKHKSDFGKFVLSSGKFYGDEEKDKGLQTSQDARFYALSASFEPFSNKGQTLVVQFTVKHEQNIDCGGGYVKLFPNSLDQTDMHGDSEYNIMFGPDICGPGTKKVHVIFNYKGKNVLINKDIRCKDDEFTHLYTLIVRPDNTYEVKIDNSQVESGSLEDDWDFLPPKKIKDPDASKPEDWDERAKIDDPTDSKPEDWDKPEHIPDPDAKKPEDWDEEMDGEWEPPVIQNPEYKGEWKPRQIDNPDYKGTWIHPEIDNPEYSPDPSIYAYDNFGVLGLDLWQVKSGTIFDNFLITNDEAYAEEFGNETWGVTKAAEKQMKDKQDEEQRLKEEEEDKKRKEEEEAEDKEDDEDKDEDEEDEEDKEEDEEEDVPGQAKDEL
notes: also called CALR^WT; endogenous wild type CALR

Test [1] has as its system healthy cord blood CD34+ cells. Nature of the test: cells. It counts as cell-based, human. As to conditions: Homo sapiens, 288 h, 12 days, read-out: inhibition of megakaryocyte formation. The method, then: Umbilical cord blood (UCB) was collected with written consent from full-term deliveries at the Women's Health Unit, Lyell McEwin Hospital (Adelaide, South Australia) or the Department of Obstetrics and Gynecology, Medical University of Graz (Austria) with institutional review board approval (IRB approval: 31-322 ex 18/19; HREC/20/WCHN/65). Samples were processed using a Ficoll-Paque (GE Healthcare) density gradient to isolate mononuclear cells (800×g, room temperature, 30 minutes, deceleration off), followed by red cell lysis (ammonium-chloride-potassium lysing buffer) to remove remaining red blood cells. CD34 enrichment was performed by magnetic cell separation using CD34 Microbead kit (Miltenyi Biotech). Alternatively, purified CD34+ cells from cord-blood were purchased from Lonza. CD34+ cells with a purity above 90% were either cryopreserved or directly cultured in serum-free stem cell retention media (StemSpan SFEMII, Stemcell Technologies, Vancouver, BC, Canada) supplemented with human recombinant SCF, TPO, FLT3, IL-6 (all 20 ng/mL), UM729 (1.75 uM) and StemReginin 1 (SR1, 300 nM). All cytokines and SRI were purchased from PeproTech (Rocky Hill, NJ, USA) whereas UM729 was purchased from Stemcell Technologies.
For megakaryocyte differentiation assays, CD34+ cells derived from cord blood or from patient peripheral blood mononuclear fractions were plated in Megacult (MegaCult™-C Collagen and Medium with Lipids) with added IL-3 and IL-6 (10 ng/ml) in the presence or absence of 50 ng/mL TPO. Cells were plated at an initial density of 1800 cells/well and cultured for 12 days at 37° C. and 5% CO2. […] Culture media was replenished every 3 days and cells were assessed for megakaryocyte differentiation on day 12 using anti-human CD41/61 PE-Cy7 (Clone A2A9/6) and CountBright beads (Thermo Fisher) to enumerate cell numbers. […] Cells were seeded at approximately 100 cells per well and were cultured in the presence of 20 μg/mL 4D7 or control IgG antibody and scored for colony and blast forming units at 12-14 days.

The target in test [2] is T1, thrombopoietin receptor (TpoR) (UniProt P40238 26-635, limits assumed).
T1 construct: whole, on cells; It was immunoprecipitated with anti-FLAG beads, so the expressed TpoR evidently carries a FLAG tag; The construct and the position of the tag are not described; also called TPO receptor
T1 sequence (looked up): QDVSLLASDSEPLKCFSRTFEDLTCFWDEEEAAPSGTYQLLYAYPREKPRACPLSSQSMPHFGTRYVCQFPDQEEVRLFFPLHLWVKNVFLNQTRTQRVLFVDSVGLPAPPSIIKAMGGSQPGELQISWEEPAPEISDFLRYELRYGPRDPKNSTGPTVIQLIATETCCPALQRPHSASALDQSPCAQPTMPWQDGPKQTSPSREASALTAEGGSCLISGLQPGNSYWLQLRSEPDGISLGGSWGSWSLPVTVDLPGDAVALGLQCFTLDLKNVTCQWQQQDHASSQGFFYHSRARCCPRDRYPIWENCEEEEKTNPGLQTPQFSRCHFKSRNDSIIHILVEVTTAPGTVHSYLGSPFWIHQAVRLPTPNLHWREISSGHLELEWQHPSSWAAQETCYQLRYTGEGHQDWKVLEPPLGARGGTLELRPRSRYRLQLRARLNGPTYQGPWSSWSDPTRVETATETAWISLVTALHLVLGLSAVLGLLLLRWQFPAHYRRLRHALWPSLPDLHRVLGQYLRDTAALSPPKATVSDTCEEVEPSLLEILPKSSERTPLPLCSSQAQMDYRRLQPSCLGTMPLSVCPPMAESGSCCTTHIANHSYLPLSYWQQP
Nature of the test: co-immunoprecipitation with anti-FLAG (MPL/TpoR), reducing Western blot. The method, then:
B. Similar experiment using TPO-independent TF-1 TpoR CALR^del61 cells at 4 and 8 hours. C. Similar experiment shown using TPO-independent TF-1 TpoR CALR^del52 cells, 8 hours. D. Flow cytometry analysis for cell cycle distribution of TF-1 TpoR CALR^del61 cells exposed to 20 μg/mL IgG or 4D7 for 48 hours. Cells were harvested and fixed and stained with propidium iodide and their DNA contents were analysed. Results from one representative experiment shown. Percentages of cells in Sub Go, G1. S and G2/M cycle indicated. E. Western blot showing specific co-immunoprecipitation of mutant CALR^del61 cells with TpoR anti-FLAG antibody under reducing conditions detected by total and mutant specific CALR antibodies. Arrowheads represent detected CALR protein. F. Western blot showing decreased TpoR phosphorylation in a TpoR immunoprecipitated after 8 hours of 20 μg/mL 4D7 treatment compared to PBS or IgG control in TF-1 TpoR CALR^del61.
(§1) For immunoblotting of total lysates, cells were lysed in NP40 buffer containing 150 mM NaCl, 50 mM Tris pH 7.6, 1% NP-40, supplemented with protease inhibitors (Complete, Roche) and phosphatase inhibitor cocktails, and boiled for 5 minutes after addition of sample buffer (60 mM Tris pH 6.8, 5% glycerol, 1% SDS, 2% β-mercaptoethanol, 0.02% bromophenol blue) before SDS gel electrophoresis followed by Western blotting (Tvorogov et al, 2010). […]

For test [3], the target named is T2, full-length 30 amino acid CALR mutant neoepitope peptide (peptide used for immunisation) (human).
T2 construct: also called full-length peptide
T2 peptide: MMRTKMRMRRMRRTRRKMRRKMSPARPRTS
Nature of the test: ELISA on peptide. (In general: An ELISA detects its analyte on a solid surface through an enzyme-linked reagent.)

The next test has as its system mutant CALR protein. Nature of the test: Western blot detection of mutant CALR by hybridoma clones. It counts as binding, human. As to conditions: cell extracts from TF-1 cells transduced with and without mutant CALR; data not shown. The method, then:
(§2) Rats were immunised with a CALR mutant peptide “MMRTKMRMRRMRRT RRKMRRKMSPARPRTS” coupled to KLH, this peptide sequence is unique to CALR mutant. Serum from the immunised rats was screened by enzyme linked immunoassay, to verify a strong titre to the peptide immunogen, prior to performing the hybridoma fusion. Immunised rat spleen cells were harvested and a spleen single cell suspension was combined with Sp2/O myeloma cell line. The cell mixture was treated with polyethylene glycol plus DMEM prior to been plated in 96 well flat bottom plates. The expanding hybridomas were screened initially by ELISA and the positive clones were further verified by western blot, for reactivity to the expressed CALR mutant protein before subcloning the hybridomas for antibody production.
For immunoblotting of total lysates, cells were lysed in NP40 buffer containing 150 mM NaCl, 50 mM Tris pH 7.6, 1% NP-40, supplemented with protease inhibitors (Complete, Roche) and phosphatase inhibitor cocktails, and boiled for 5 minutes after addition of sample buffer (60 mM Tris pH 6.8, 5% glycerol, 1% SDS, 2% β-mercaptoethanol, 0.02% bromophenol blue) before SDS gel electrophoresis followed by Western blotting (Tvorogov et al, 2010). Primary antibodies against pERK (#9101), pSTAT5 (#9359), ERK (#4695), Actin (#4970), Caspase 3 (#14220), wildtype CALR (#12238) were purchased from Cell Signalling. Primary antibodies against pSTATI (#612233), pSTAT3 (#612357), STATI (#610186), STAT3 (#610190), STAT5 (#610192) and Anti-phosphotyrosine 4G10 (#610012) were purchased from BD Biosciences. Mutant CALR monoclonal antibody CAL2 was purchased from Dianova (Hamburg, Germany). Immunopreciptation of TpoR was performed in standard NP40 lysis buffer with additional 50 mM iodoacetamide to avoid any de novo disulfide bond formation post lysis. To reduce IgG background during immunoprecipitation anti-FLAG conjugated to magnetic beads (Sigma, #M8823) were used. For this same reason, anti-FLAG-HRP conjugated antibodies (Sigma, #A8592) were used in western blotting.

Test [4] concerns TF-1 TpoR CALR^del61 cells. Nature of the test: Cell proliferation, trypan blue exclusion. Type of test: cell-based, human. To be noted: 5 or 20 μg/mL; FIG. 8. The protocol: […] Cells were seeded in triplicate and each well was counted in triplicate every 24 hours for 5 days using trypan blue exclusion.
Test [5] relates to 30 amino acid peptide corresponding to the C-terminal mutant CALR neoepitope sequence. Nature of the test: ELISA binding to peptide. Further details: species or system human. The protocol:
as §2

The target in test [6] is B1. Nature of the test: Western blot of TF-1 cell extracts (hybridoma clone screen). The protocol:
B. Replicate Scatchard analyses of 4D7 using I¹²⁵-labelled and unlabelled 4D7 bound to full-length peptide (n=3). C. […] Cells were cultured in the presence or absence of 10 ng/ml TPO (n=3). D. Paracrine CALR-mutant protein is not sufficient to maintain TPO sensitive cells in culture. TF1 TpoR and TF-1 TpoR CALR^del61 cells were seeded at the same density and cultured in the presence or absence of TPO. Cells were separated by semi-permeable membrane in a horizontal co-culture system. Cell populations on either side of the membrane were counted every 24 hours over 4 days in triplicate and representative images were taken on day 4. Exogenous CALR secreted by TF-1 TpoR CALR^del61 was unable to assist growth of factor dependent TF-1 TopR cells (n=3). E. Histogram overlays showing fluorescence intensity of unstained and PE conjugated IgG2a isotype control in TF-1, TF-1 TpoR and TF-1 TpoR CALR^del61 compared to 4D7 conjugated to PE.
as §1
On the technique in general: In western blotting, separated proteins are transferred to a membrane and probed.

One may read the inhibition as how much of the control response was suppressed. As to `N#CC[C@H](C1CCCC1)n1cc(-c2ncnc3[nH]ccc23)cn1` [ruxolitinib], the inhibition at 0.05 µM in test [1] (50 nM, P=0.008) is greater than 30%. In addition, the inhibition at 0.1 µM in test [1] (100 nM, P=0.07) is greater than 30%.
In the case of B1, the binding result in test [2] is reported as “no binding”.

B2: 2D2 rat monoclonal anti-mutant calreticulin antibody (antibody, V domains shown)
VH: QVQLQQSGAELTKPGSSVKISCKTSGYTFTTYDISWIKQRPGQALEWIGAIYPGGVTTGYNEKFKGKATLTVDKSSNTAFMQLSSLTPEDTAVYYCARWGHTTGTRFDHWGQGVMVTVSS
VL: DVLLTQTPVSLSVSLGDQASISCRSSQSLEYSDGYTYLEWYVQKPGQSPQLLIYEVSDRFSGVPDRFIGSGSGTDFTLKISRVEPEDLGVYYCFQATHDPPTFGGGTKLELK
notes: also called rat anti-human mutCALR 2D2
Consider B2, for which the binding result in test [3] was “binds”; in test [6] it was “no binding”. Besides, in the test with mutant CALR protein, the “detecting mutant but not wild type CALR protein by Western blotting” value is on record as “superior activity”. The “proliferation of cytokine-independent TF1 TpoR/mutCALR cells” value in test [4] is “inhibit proliferation”. Moreover, the “binding to peptide by ELISA” value in test [5] is “positive binding”.
